# Patent publication US20160264649A1
# Columns and labels:
# Assay in all cases: cell-based or functional assay
# [1] = target: HIV-1 Env of isolate MGRM-D-011 (subtype D) (HIV-1)
# [2] = target: HIV-1 Env of isolate MGRM-F1-020 (subtype F) (HIV-1)
# [3] = target: HIV-1 Env of isolate MGRM-D-018 (subtype D) (HIV-1)
# [4] = target: HIV-1 Env of pseudovirus isolate MGRM-G-028 (subtype G) (HIV-1)
# [5] = target: HIV-1 Env of isolate MGRM-F1-004 (subtype F) (HIV-1)
# [6] = target: HIV-1 Env of isolate MGRM-D-005 (subtype D) (HIV-1)
# [7] = target: HIV-1 Env of isolate MGRM-D-019 (subtype D) (HIV-1)
# [8] = target: envelope of aMLV pseudovirus (negative control)
# [9] = target: HIV-1 Env of isolate MGRM-F1-013 (subtype F) (HIV-1)
# [10] = target: HIV-1 Env of isolate 98CN006 (subtype CRF08_BC) (HIV-1)
# [11] = target: HIV-1 Env of isolate 92UG005 (subtype D) (HIV-1)
# [12] = target: HIV-1 Env of pseudovirus isolate MGRM-G-025 (subtype G) (HIV-1)
# [13] = target: HIV-1 Env of isolate MGRM-D-024 (subtype D) (HIV-1)
# [14] = target: HIV-1 Env of isolate MGRM-F1-010 (subtype F) (HIV-1)
# [15] = target: HIV-1 Env of isolate MGRM-D-013 (subtype D) (HIV-1)
# [16] = target: HIV-1 Env of pseudovirus isolate MGRM-G-015 (subtype G) (HIV-1)
# [17] = target: HIV-1 Env of pseudovirus isolate MGRM-G-017 (subtype G) (HIV-1)
# [18] = target: HIV-1 Env of isolate MGRM-F1-017 (subtype F) (HIV-1)
# [19] = target: HIV-1 Env of isolate 92UG046 (subtype D) (HIV-1)
# [20] = target: HIV-1 Env of isolate 92UG114 (subtype D) (HIV-1)
# [21] = target: HIV-1 Env of isolate MGRM-D-008 (subtype D) (HIV-1)
# [22] = target: HIV-1 Env of isolate MGRM-F1-022 (subtype F) (HIV-1)
# [23] = target: HIV-1 Env of isolate MGRM-F1-021 (subtype F) (HIV-1)
# [24] = target: HIV-1 Env of pseudovirus isolate MGRM-G-027 (subtype G) (HIV-1)
# [25] = target: HIV-1 Env of isolate MGRM-D-002 (subtype D) (HIV-1)
# [26] = target: HIV-1 Env of isolate 92UG001 (subtype D) (HIV-1)
# [27] = target: HIV-1 Env of pseudovirus isolate MGRM-G-011 (subtype G) (HIV-1)
# [28] = target: HIV-1 Env of pseudovirus isolate MGRM-G-024 (subtype G) (HIV-1)
# [29] = target: HIV-1 Env of isolate MGRM-F1-014 (subtype F) (HIV-1)
# [30] = target: HIV-1 Env of isolate MGRM-F1-018 (subtype F) (HIV-1)
# [31] = target: HIV-1 Env of isolate MGRM-D-012 (subtype D) (HIV-1)
# [32] = target: HIV-1 Env of isolate MGRM-D-026 (subtype D) (HIV-1)
# [33] = target: HIV-1 Env of isolate MGRM-D-001 (subtype D) (HIV-1)
# [34] = target: HIV-1 Env of isolate MGRM-D-014 (subtype D) (HIV-1)
# [35] = target: HIV-1 Env of isolate MGRM-D-021 (subtype D) (HIV-1)
# [36] = target: HIV-1 Env of pseudovirus isolate MGRM-G-014 (subtype G) (HIV-1)
# [37] = target: HIV-1 Env of isolate MGRM-D-004 (subtype D) (HIV-1)
# [38] = target: HIV-1 Env of pseudovirus isolate MGRM-G-013 (subtype G) (HIV-1)
# [39] = target: HIV-1 Env of isolate MGRM-F1-016 (subtype F) (HIV-1)
# [40] = target: HIV-1 Env of isolate MGRM-D-020 (subtype D) (HIV-1)
# [41] = target: HIV-1 Env of isolate MGRM-F1-012 (subtype F) (HIV-1)
# [42] = target: HIV-1 Env of isolate 92UG024 (subtype D) (HIV-1)
# [43] = target: HIV-1 Env of isolate MGRM-F1-023 (subtype F) (HIV-1)
# [44] = target: HIV-1 Env of pseudovirus isolate MGRM-G-019 (subtype G) (HIV-1)
# [45] = target: HIV-1 Env of pseudovirus isolate MGRM-G-016 (subtype G) (HIV-1)
# [46] = target: HIV-1 Env of isolate MGRM-F1-008 (subtype F) (HIV-1)
# [47] = target: HIV-1 Env of pseudovirus isolate MGRM-G-006 (subtype G) (HIV-1)
# [48] = target: HIV-1 Env of isolate MGRM-D-029 (subtype D) (HIV-1)
# [49] = target: HIV-1 Env of isolate MGRM-D-016 (subtype D) (HIV-1)
# [50] = target: HIV-1 Env of isolate MGRM-F1-015 (subtype F) (HIV-1)
# [51] = target: HIV-1 Env of isolate MGRM-D-028 (subtype D) (HIV-1)
# [52] = target: HIV-1 Env of isolate MGRM-D-022 (subtype D) (HIV-1)
# [53] = target: HIV-1 Env of pseudovirus isolate MGRM-G-009 (subtype G) (HIV-1)
# [54] = target: HIV-1 Env of pseudovirus isolate MGRM-G-001 (subtype G) (HIV-1)
# [55] = target: HIV-1 Env of pseudovirus isolate MGRM-G-004 (subtype G) (HIV-1)
# [56] = target: HIV-1 Env of isolate MGRM-F1-006 (subtype F) (HIV-1)
# [57] = target: HIV-1 Env of isolate 98CN009 (subtype CRF07_BC) (HIV-1)
# [58] = target: HIV-1 Env of isolate MGRM-D-003 (subtype D) (HIV-1)
binder,measurement,setting,value
"PGT-126 (antibody, V domains shown) VH: QPQLQESGPGLVEASETLSLTCTVSGDSTAACDYFWGWVRQPPGKGLEWIGGLSHCAGYYNTGWTYHNPSLKSRLTISLDTPKNQVFLKLNSVTAADTAIYYCARFDGEVLVYHDWPKPAWVDLWGRGTLVTVSS VL: QSALTQPPSASGSPGQSISISCTGTSNRFVSWYQQHPGKAPKLVIYGVNKRPSGVPDRFSGSKSGNTASLTVSGLQTDDEAVYYCSSLVGNWDVIFGGGTKLTVL",IC50 (neutralization),[1],0.009 µg/mL
same,IC50 (neutralization),[2],> 50 µg/mL
same,IC50 (neutralization),[3],0.009 µg/mL
same,IC50,[4],0.012 µg/mL
same,IC50 (neutralization),[5],0.063 µg/mL
same,IC50 (neutralization),[6],0.792 µg/mL
same,IC50 (neutralization),[7],> 50 µg/mL
same,IC50,[8],> 50 µg/mL
same,IC50 (neutralization),[9],> 50 µg/mL
same,IC50 (neutralization),[10],0.046 µg/mL
same,IC50 (neutralization),[11],0.037 µg/mL
same,IC50,[12],17.1 µg/mL
same,IC50 (neutralization),[13],0.376 µg/mL
same,IC50 (neutralization),[14],> 50 µg/mL
same,IC50 (neutralization),[15],> 50 µg/mL
same,IC50,[16],> 50 µg/mL
same,IC50,[17],> 50 µg/mL
same,IC50 (neutralization),[18],> 50 µg/mL
same,IC50 (neutralization),[19],> 50 µg/mL
same,IC50 (neutralization),[20],0.038 µg/mL
same,IC50 (neutralization),[21],43.1 µg/mL
same,IC50 (neutralization),[22],> 50 µg/mL
same,IC50 (neutralization),[23],> 50 µg/mL
same,IC50,[24],0.875 µg/mL
same,IC50 (neutralization),[25],0.039 µg/mL
same,IC50 (neutralization),[26],> 50 µg/mL
same,IC50,[27],7.32 µg/mL
same,IC50,[28],> 50 µg/mL
same,IC50 (neutralization),[29],> 50 µg/mL
same,IC50 (neutralization),[30],14.9 µg/mL
same,IC50 (neutralization),[31],> 50 µg/mL
same,IC50 (neutralization),[32],> 50 µg/mL
same,IC50 (neutralization),[33],0.084 µg/mL
same,IC50 (neutralization),[34],0.03 µg/mL
same,IC50 (neutralization),[35],0.047 µg/mL
same,IC50,[36],0.009 µg/mL
same,IC50 (neutralization),[37],> 50 µg/mL
same,IC50,[38],48.8 µg/mL
same,IC50 (neutralization),[39],> 50 µg/mL
same,IC50 (neutralization),[40],0.023 µg/mL
same,IC50 (neutralization),[41],0.3 µg/mL
same,IC50 (neutralization),[42],> 50 µg/mL
same,IC50 (neutralization),[43],0.009 µg/mL
same,IC50,[44],0.018 µg/mL
same,IC50,[45],> 50 µg/mL
same,IC50 (neutralization),[46],> 50 µg/mL
same,IC50,[47],> 50 µg/mL
same,IC50 (neutralization),[48],> 50 µg/mL
same,IC50 (neutralization),[49],> 50 µg/mL
same,IC50 (neutralization),[50],> 50 µg/mL
same,IC50 (neutralization),[51],> 50 µg/mL
same,IC50 (neutralization),[52],> 50 µg/mL
same,IC50,[53],> 50 µg/mL
same,IC50,[54],0.038 µg/mL
same,IC50,[55],> 50 µg/mL
same,IC50 (neutralization),[56],0.078 µg/mL
same,IC50 (neutralization),[57],0.019 µg/mL
same,IC50 (neutralization),[58],0.021 µg/mL
